Results from the supplement of paper PMC10724198.
± gives the standard deviation of the averaged measurements.

test system: Saccharomyces cerevisiae; assay: protein stability index of tFT-peptide fusion (C-terminal peptide) (PSI (0-1 scale)); higher = more stable (slower turnover); details: genetic background: wild type; temperature: 30 C
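Also: PSI is a weighted mean of sequencing reads over stability bins, variants kept only with over 10 reads, mCherry proximal and sfGFP distal, peptide attached via GGGS linker.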

TSTRTPTHRGPL and TSYFRRRRSHSH are within error of each other in protein stability index: 0.762 ± 0.014 for the first, 0.753 ± 0.01 for the second.

TTCKTPPTYSFP and TTCLYYDLQIPM are within error of each other in protein stability index: 0.71 ± 0.033 for the first, 0.672 ± 0.015 for the second.

TTIVGRIMRVMR and TTKKKKGKKKYH are within error of each other in protein stability index: 0.706 ± 0.012 for the first, 0.681 ± 0.048 for the second.

TTQEPTPLAQEQ and TTVAIPSINRYS are within error of each other in protein stability index: 0.713 ± 0.024 for the first, 0.671 ± 0.051 for the second.

TTWSPWLGVAET and TVCGTLISFVEG are within error of each other in protein stability index: 0.752 ± 0.07 for the first, 0.694 ± 0.028 for the second.

TVERLGSRRGMA and TVIWNSLRNCKF are within error of each other in protein stability index: 0.712 ± 0.022 for the first, 0.819 ± 0.15 for the second.

Going from TVPFGLPVRPSP to TVPRSPPSPPLT, the protein stability index falls from 0.7464 ± 0.004 to 0.7 ± 0.021.

TVSGPKTNLGQA and TVYRQRRDAPTR are within error of each other in protein stability index: 0.71 ± 0.14 for the first, 0.727 ± 0.022 for the second.

TWANKRIGRRKE and TWKARFFMDLGN are within error of each other in protein stability index: 0.778 ± 0.039 for the first, 0.672 ± 0.12 for the second.

TWVPYIIMKRER and TYANKVKVHCGI are within error of each other in protein stability index: 0.669 ± 0.019 for the first, 0.651 ± 0.059 for the second.

Going from VAAFGGGPTNGV to VAAGGTVSPSSQ, the protein stability index falls from 0.724 ± 0.013 to 0.653 ± 0.057.

VAAKAHPLASMS and VACFASRVLCRG are within error of each other in protein stability index: 0.617 ± 0.11 for the first, 0.503 ± 0.024 for the second.

VAGRGLGCPGRI and VAGSGAGREAAY are within error of each other in protein stability index: 0.632 ± 0.018 for the first, 0.651 ± 0.0067 for the second.

VAGVLVFGKVGG and VALFPVSFFSWL are within error of each other in protein stability index: 0.694 ± 0.043 for the first, 0.643 ± 0.098 for the second.

Compared with VALVCFAAGWLW, VASSGRSPTPTR is higher in protein stability index: 0.507 ± 0.037 for the first, 0.7551 ± 0.0015 for the second.

First: VAWAQPSGSKAC
Second: VCAAWKCRLDAG
The protein stability index of the first is higher: 0.697 ± 0.046 for the first, 0.624 ± 0.0043 for the second.

VCAGGVFRLARG and VCDIRSFALWYA are within error of each other in protein stability index: 0.66 ± 0.12 for the first, 0.8 ± 0.024 for the second.

VCGECGWRRVCL and VCGGLGCSVVLE are within error of each other in protein stability index: 0.734 ± 0.028 for the first, 0.721 ± 0.078 for the second.

Going from VCGGRQGGWGGW to VCGRTHRVLPTY, the protein stability index falls from 0.693 ± 0.0098 to 0.641 ± 0.015.

VCIAKCKYNKTS and VCLGAWGEGGRG are within error of each other in protein stability index: 0.606 ± 0.015 for the first, 0.664 ± 0.071 for the second.

VCMSLVRGEAGG and VCNFCFLPASLV are within error of each other in protein stability index: 0.657 ± 0.011 for the first, 0.636 ± 0.021 for the second.

VCPPIVSSSWIL and VCPVIGGGGVGV are within error of each other in protein stability index: 0.687 ± 0.035 for the first, 0.695 ± 0.0077 for the second.

VCRGFRHQCWYG and VCRLLASCFWRL are within error of each other in protein stability index: 0.665 ± 0.013 for the first, 0.655 ± 0.035 for the second.

VCSLALSRPSTG and VCTGYIAGGPVC are within error of each other in protein stability index: 0.6564 ± 0.0018 for the first, 0.659 ± 0.05 for the second.

VCTPCEFIRTQG and VCVFFLFGYFRL are within error of each other in protein stability index: 0.697 ± 0.036 for the first, 0.562 ± 0.22 for the second.

VCVLGGVWGCRG and VCVSRGPGTSDA are within error of each other in protein stability index: 0.66 ± 0.072 for the first, 0.685 ± 0.02 for the second.

VCWHSNCVGARH and VDGLQYFMYISG are within error of each other in protein stability index: 0.652 ± 0.01 for the first, 0.68 ± 0.073 for the second.

First: VDGLSGVRPRGL
Second: VDLARWPVPEFW
The protein stability index of the first is lower: 0.69 ± 0.033 for the first, 0.834 ± 0.022 for the second.

Going from VDRAPFHLGRQG to VEDGGSREAGEA, the protein stability index falls from 0.712 ± 0.043 to 0.627 ± 0.0073.

Going from VEERGCCGEAEG to VEGISKMTRINP, the protein stability index rises from 0.72671 ± 0.00023 to 0.8698 ± 0.0057.

VEGNLIYKKKYK and VEHILQGVKYRR are within error of each other in protein stability index: 0.656 ± 0.053 for the first, 0.717 ± 0.098 for the second.

VESRVVGGGGDW and VEVKEKLKLWSH are within error of each other in protein stability index: 0.683 ± 0.047 for the first, 0.691 ± 0.021 for the second.

Compared with VFAHCSRHRGST, VFDCLCGLRPGF is lower in protein stability index: 0.7103 ± 0.0029 for the first, 0.632 ± 0.026 for the second.

VFDGSVSWARHD and VFGFLGSLASCR are within error of each other in protein stability index: 0.6529 ± 0.0053 for the first, 0.853 ± 0.2 for the second.

VFHLATSVRRRY and VFLLSDVCGLGL are within error of each other in protein stability index: 0.672 ± 0.051 for the first, 0.583 ± 0.2 for the second.

Compared with VFLVDCFGVCFL, VFMWRIRRRLVR is lower in protein stability index: 0.784 ± 0.048 for the first, 0.598 ± 0.02 for the second.

Going from VFPPLSRLLPGP to VFTGVGFVPLVC, the protein stability index falls from 0.699 ± 0.1 to 0.5757 ± 0.0034.

Going from VGAGRGKWRGGG to VGAGVAGGASVS, the protein stability index falls from 0.6591 ± 0.0013 to 0.613 ± 0.027.

VGAIGYWCPEWR and VGAPPCYPVSRL are within error of each other in protein stability index: 0.651 ± 0.019 for the first, 0.74 ± 0.24 for the second.

VGCPGGVWVFRG and VGCTSFWLAILR are within error of each other in protein stability index: 0.535 ± 0.011 for the first, 0.56 ± 0.026 for the second.

Compared with VGDGLGWGGQGG, VGEIMREVKGPD is higher in protein stability index: 0.678 ± 0.03 for the first, 0.72 ± 0.0079 for the second.

Compared with VGFDFLFRFFFL, VGFFGMGVLPEG is higher in protein stability index: 0.628 ± 0.037 for the first, 0.741 ± 0.013 for the second.

VGFSLGGFLFLF and VGGCLFQLSSGY are within error of each other in protein stability index: 0.585 ± 0.096 for the first, 0.683 ± 0.035 for the second.

First: VGGGASGVGRSG
Second: VGGGGERGRGGS
The protein stability index of the first is lower: 0.63009 ± 0.00033 for the first, 0.687 ± 0.01 for the second.

Going from VGGGRAALRWYG to VGGGRFCGCLVV, the protein stability index rises from 0.673 ± 0.018 to 0.767 ± 0.015.

Going from VGGGRRGGVGEG to VGGRAAIGRGGW, the protein stability index rises from 0.652 ± 0.021 to 0.706 ± 0.012.

VGGRLLFVGKRG and VGGRMGVDEGKG are the same in protein stability index: 0.669 ± 0.051 for the first, 0.669 ± 0.02 for the second.

VGGRRCVCVWWL and VGHGGRRGVGGW are within error of each other in protein stability index: 0.674 ± 0.016 for the first, 0.612 ± 0.057 for the second.

VGICCCKTYCCS and VGIFSLLRCRGE are within error of each other in protein stability index: 0.656 ± 0.074 for the first, 0.701 ± 0.035 for the second.

VGIQQSVVVRLE and VGKHNLYSKNWR are within error of each other in protein stability index: 0.6685 ± 0.0034 for the first, 0.66 ± 0.016 for the second.

Going from VGKSNKYEETHK to VGLGAGGTSLMR, the protein stability index falls from 0.747 ± 0.06 to 0.571.

VGLGEGGGVGEG and VGLLQRSLAFVL are within error of each other in protein stability index: 0.678 ± 0.079 for the first, 0.612 ± 0.031 for the second.

VGMAGWSRVRWG and VGMVTADGRLAT are within error of each other in protein stability index: 0.715 ± 0.0089 for the first, 0.692 ± 0.043 for the second.

VGNNERDLQQIE and VGRSAAGRLELI are within error of each other in protein stability index: 0.665 ± 0.032 for the first, 0.679 ± 0.014 for the second.

VGSGFGGAGVIG and VGSRWNKELSQS are within error of each other in protein stability index: 0.696 ± 0.045 for the first, 0.725 ± 0.081 for the second.

VGSSPYTVFVSG and VGTRVGCEAGVV are within error of each other in protein stability index: 0.747 ± 0.11 for the first, 0.637 ± 0.095 for the second.

VGVATRGVGGGM and VGVGRAALRWYG are within error of each other in protein stability index: 0.669 ± 0.032 for the first, 0.6716 ± 0.0035 for the second.

Going from VGVGRGALRWYG to VGVKLVVEAIRR, the protein stability index falls from 0.704 ± 0.014 to 0.6322 ± 0.0039.

VGVLRTSRASPH and VGVLSYYTCYEL are within error of each other in protein stability index: 0.646 ± 0.031 for the first, 0.689 ± 0.18 for the second.

VGVSGCVLWYRV and VGWGLGGGVVLV are within error of each other in protein stability index: 0.692 ± 0.031 for the first, 0.675 ± 0.047 for the second.

VGWRGTGCGRVW and VGWRWGRGRAVW are within error of each other in protein stability index: 0.688 ± 0.074 for the first, 0.728 ± 0.067 for the second.

VGWWVAVGWGLG and VGYGTGGAGGVE are within error of each other in protein stability index: 0.704 ± 0.067 for the first, 0.766 ± 0.044 for the second.

VHFFHLCFCEIL and VHLAPPLPPTAT are within error of each other in protein stability index: 0.673 ± 0.051 for the first, 0.708 ± 0.021 for the second.

VHVMSPPPALPV and VHWAALRSVLRG are within error of each other in protein stability index: 0.659 ± 0.013 for the first, 0.699 ± 0.047 for the second.

Going from VIAGSWVAGVSV to VICSIRGYNRLR, the protein stability index rises from 0.655 ± 0.011 to 0.711 ± 0.038.

VIDQRIDIAYFS and VIEWFVRGRGGG are within error of each other in protein stability index: 0.746 ± 0.1 for the first, 0.693 ± 0.01 for the second.

Compared with VIGSSGRVGGLG, VILGRGGSICKV is higher in protein stability index: 0.6913 ± 0.0028 for the first, 0.795 ± 0.046 for the second.

Compared with VIYERDSLRGGI, VKGKKREVTDPR is lower in protein stability index: 0.753 ± 0.038 for the first, 0.6376 ± 0.0023 for the second.

VKRSGSDGALHR and VKRVYQRFHVKK are within error of each other in protein stability index: 0.685 ± 0.021 for the first, 0.666 ± 0.04 for the second.

VKSAAGPGRRSS and VKSTRRHGRPQS are within error of each other in protein stability index: 0.66 ± 0.015 for the first, 0.723 ± 0.057 for the second.

VKTLNQKCIKKN and VKYSIEVKRKKK are within error of each other in protein stability index: 0.719 ± 0.062 for the first, 0.7181 ± 0.0039 for the second.

Compared with VLAHCLFRCEKN, VLAWVPNFALLP is higher in protein stability index: 0.6062 ± 0.001 for the first, 0.677 ± 0.063 for the second.

VLDLVPDFSNGG and VLDVRLGGRCGE are within error of each other in protein stability index: 0.65 ± 0.036 for the first, 0.702 ± 0.072 for the second.

Compared with VLEKFFFGLAIL, VLFLGVRCSCLG is lower in protein stability index: 0.569 ± 0.014 for the first, 0.533 ± 0.014 for the second.

VLFLVGLCRDFA and VLFSRFVFLGVL are within error of each other in protein stability index: 0.553 ± 0.036 for the first, 0.528 ± 0.0095 for the second.

VLHQWWCIGLGC and VLKVFIRERRVR are within error of each other in protein stability index: 0.736 ± 0.013 for the first, 0.703 ± 0.081 for the second.

VLLYSGVVKFLQ and VLMSCLFFGIRY are within error of each other in protein stability index: 0.586 ± 0.021 for the first, 0.54 ± 0.044 for the second.

Going from VLPAWSGTHFVG to VLPKQVSEALTL, the protein stability index falls from 0.714 ± 0.017 to 0.612 ± 0.024.

First: VLPPLSALAPFD
Second: VLQSTTNPPTSW
The protein stability index of the first is higher: 0.764 ± 0.029 for the first, 0.631 ± 0.05 for the second.

VLRFHIRRTQQQ and VLRSPHYRPRRE are within error of each other in protein stability index: 0.707 ± 0.012 for the first, 0.673 ± 0.055 for the second.
